Target: T1, hRpn13_ΔMTT (Homo sapiens, UniProt Q16186)
T1 construct: recombinant plasmid of hRpn13 Pru (1–150) cloned into the pRSET vector; GST (N, cleaved yes); residual Gly-Ser (^cG-^dS) left after cleavage; made in house; host or cells: Escherichia coli BL21 (DE3); pGEX-4T-1 plasmid synthesized by GenScript (Addgene 237412)
Assay: 1H-15N HSQC NMR, K48-diUb constructs with hRpn13_ΔMTT
Format: binding
Settings: for ubiquitin contact surface binding (HSQC): varying K48-diUb concentrations
Protocol: To test further whether peptide binding can influence hRpn13 Pru interaction with ubiquitin, we generated K48-linked diubiquitin in which the distal moiety (linked via G76) is extended by a 6-residue linker sequence of GSGGSG followed by either the ENT (K48-diUb^ENT) or EDGEGEE (K48-diUb^EDGEGEE) sequence. Varying concentrations of K48-diUb^ENT, K48-diUb^EDGEGEE, or K48-diUb^D77 were added to 100 μM ^15N-labeled hRpn13_ΔMTT and effects on hRpn13 monitored by recording ^1H-^15N HSQC spectra.
K48-diUb samples were produced by using a similar method as previously described. Briefly, Ub-D77 (proximal), Ub-ENT (proximal), Ub-EDGEGEE (proximal) and Ub-K48R (distal) were added at a final concentration of 0.8 mM to a reaction buffer (50 mM Tris pH 8.0, 5 mM MgCl2, 10 mM creatine phosphate, 0.6 U/mL inorg. PPase, 0.6 U/mL creatine kinase, 2 mM ATP) preincubated with 20 μM E2-25K. 0.1 μM E1 (R&D Systems) was added to this reaction system to initiate diUb synthesis, and it was left for 18 h at 37 °C. The reaction was quenched by dilution with 4 volumes of 50 mM sodium acetate (pH 4.5) and passed over a Mono S 5/50 GL column (GE Healthcare). Further purification was achieved by SEC on a HiLoad 16/600 Superdex 75 prep grade column (GE Healthcare) in buffer C.
All ^1H-^15N HSQC experiments were acquired on samples dissolved in NMR buffer (20 mM sodium phosphate, pH 6.5, 50 mM NaCl, 1 mM TCEP, 10% D2O) unless specified, in which case 2 mM DTT replaced TCEP. The samples were purified in DTT-containing buffer and then exchanged into NMR buffer by using Zeba Protein Desalting columns (Thermo Fisher Scientific). The pH was measured and adjusted to 6.5. All NMR experiments were performed at 25 °C on a Bruker Advance 600 MHz spectrometer equipped with a cryogenically cooled probe. The data were processed by NMRpipe[46] (version 11.5) and spectra visualized and analyzed with NMR-FAM-SPARKY[47] (version 3.190) by using previous chemical shift assignments[12],[23] and NMRbox[48]. The amide nitrogen and hydrogen chemical shift perturbations (CSP) were mapped for each amino acid according to Eq. 1.1 CSP=0.2ΔδN2+ΔδH2
Supplementary Figure 13: NMR experiments of hRpn13 Pru binding to K48-diUb^EDGEGEE, K48-diUb^ENT or K48-diUb^D77. a) ^1H-^15N HSQC spectrum of 0.1 mM ^15N-labeled hRpn13_ΔMTT alone (black) or with equimolar K48-diUb^EDGEGEE (blue), K48-diUb^ENT (red) or K48-diUb^D77 (green). Select residues are labeled. The spectra were acquired on a 600 MHz spectrometer equipped with a cryogenically cooled probe and at 25°C samples with samples dissolved in 20 mM sodium phosphate, pH 6.5, 100 mM NaCl, 1 mM TCEP, 10% D2O.

T1 sequence (Q16186 4-150, stated change not applied): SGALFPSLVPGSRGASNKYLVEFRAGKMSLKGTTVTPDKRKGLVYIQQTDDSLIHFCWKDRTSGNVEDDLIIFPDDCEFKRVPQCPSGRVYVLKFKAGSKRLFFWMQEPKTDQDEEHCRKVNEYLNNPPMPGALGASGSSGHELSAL

| Substance | ubiquitin contact surface binding (HSQC) (100 μM 15N-hRpn13_ΔMTT) | bound state hRpn13 F76 signal (100 μM 15N-hRpn13_ΔMTT) | strength of complex with hRpn13 (HSQC) (100 μM 15N-hRpn13_ΔMTT) | hRpn13 D78, A100, and G101 signal shifting compared to K48-diUb^D77 (sub-stoichiometric K48-diUb concentrations) |
| --- | --- | --- | --- | --- |
| K48-diUb^D77: K48-linked diubiquitin from Ub-D77 (proximal) and Ub-K48R (distal) [reference compound] | binding to ubiquitin was observed | – | – | – |
| K48-diUb^EDGEGEE: K48-linked diubiquitin extended by linker GSGGSG followed by EDGEGEE | binding to ubiquitin was observed | A bound state hRpn13 signal was only observed for K48-diUb^EDGEGEE | stronger complex with hRpn13 compared to K48-diUb^ENT or K48-diUb^D77 | more pronounced shifting at sub-stoichiometric concentrations |
